The text below walks through data of patent US20070078096A1, “Buffered drug formulations for transdermal electrotransport delivery” (priority 1997, published 2007).

The nature of this data set: hGH stability in HEC gel at 32° C. (RP, SEC, IE HPLC). It is filed as physicochemical. Particulars: for hGH remaining intact: HEC gel, 32° C., after 6 hours. Here is the method:
A sufficient quantity of His-Gly from BACHEM Bioscience was added to distilled water to make a 12.5 mM buffer solution having a pH of 6.75. A human growth hormone (hGH) formulation obtained from BresaGen contained growth hormone, mannitol and glycine in the following proportions: 1:5:1 (w/w). The original hGH formulation was subjected to purification (diafiltration against 12.5 mM His-Gly buffer to remove the mannitol and glycine) and the hGH concentration was adjusted to about 20 mg/ml via ultrafiltration.
Aliquots of 250 μl of the resulting hGH stock solution were placed into Eppendorf tubes, each containing 5 mg (2%) of hydroxyethyl cellulose (HEC) as a gelling agent and the samples were carefully mixed. After gelation, the samples were tested for stability at body temperature. The samples were warmed to 32° C. (ie, skin temperature) and assayed at 0, 1, 2, 3, 4, 5, and 6 hours to determine the percent of hGH remaining intact in the gel. hGH from the gels was extracted by dissolving the gel in 25 ml of His-Gly buffer. All hGH samples were analyzed by reverse-phase high performance liquid chromatography (RP), size-exclusion high performance liquid chromatography (SEC), and ion-exchange high performance liquid chromatography (IE) to determine percentage of intact hGH remaining (%LS in FIG. 9). The percent of hGH remaining was calculated by measuring the concentration of the hGH (as determined using one of three high performance liquid chromatography methods) and dividing that by the initial hGH concentration.
As a comparison, hGH stability studies were run under identical conditions to those described above, except histidine buffer was substituted for His-Gly.

Setting [1] is: His-Gly buffered hGH gel stored at 32° C.

“hGH: human growth hormone formulation obtained from BresaGen, diafiltered against buffer, about 20 mg/ml in 2% HEC gel”: the hGH remaining intact entry (His-Gly buffer 12.5 mM) is listed as “about 80%” and the hGH remaining intact entry (histidine buffer) is “approximately 50%”. In addition, the degradation products entry under setting [1] is on record as “No extra degradation products were discovered”. The “loss of protein through degradation” value under setting [1] is reported as “no significant loss of protein through degradation”.
